Patent US20130326725

Tests used:
Assay in all cases: cell_activity
[1] = tested on: ZFN 107833R (28550) (synthetic construct); conditions: as pair 107833L/R (pKG7481); tomato protoplasts, 48 h; also active in yeast assay
[2] = tested on: ZFN 107830R (28492) (synthetic construct); conditions: as pair 107830L/R (pKG7479); tomato protoplasts, 48 h; also active in yeast assay
[3] = tested on: ZFN 107830L (28491) (synthetic construct); conditions: as pair 107830L/R (pKG7479); tomato protoplasts, 48 h; also active in yeast assay
[4] = tested on: ZFN 107832L (28535) (synthetic construct); conditions: as pair 107832L/R (pKG7480); tomato protoplasts, 48 h; also active in yeast assay
[5] = tested on: ZFN 107835L (28563) (synthetic construct); conditions: as pair 107835L/R (pKG7482); tomato protoplasts, 48 h; also active in yeast assay
[6] = tested on: ZFN 107833L (28549) (synthetic construct); conditions: as pair 107833L/R (pKG7481); tomato protoplasts, 48 h; also active in yeast assay
[7] = tested on: ZFN 107832R (28536) (synthetic construct); conditions: as pair 107832L/R (pKG7480); tomato protoplasts, 48 h; also active in yeast assay
[8] = tested on: ZFN 107835R (28564) (synthetic construct); conditions: as pair 107835L/R (pKG7482); tomato protoplasts, 48 h; also active in yeast assay

“TTCAGAGGTCAATCTCCCAGTAGTTGGTGGTCATGCTGGCATAAC (double strand) [107833R target]” gave an activity (% indel clones) [1] of 2.
Work on “AGCATCCTATGTATCTCGCCGTGGATTCGCATCGGGATCCG (double strand) [107830R target]” yielded an activity (% indel clones) [2] of 4.1.
With “CGGATCCCGATGCGAATCCACGGCGAGATACATAGGATGCT (double strand) [107830L target]” the activity (% indel clones) [3] was 4.1.
For “CTTGGCCCTAACCACATCAAGCATGGTAACTCCAAAGAG (double strand) [107832L target]”, the activity (% indel clones) [4] was 5.5.
“GGCTTATTACCTTGGATGCGAAGAAGGGAAGCTCGGTGAC (double strand) [107835L target]” gave an activity (% indel clones) [5] of 0.7.
Sequence “GTTATGCCAGCATGACCACCAACTACTGGGAGATTGACCTCTGAA (double strand) [107833L target]” has an activity (% indel clones) [6] of 2.
Sequence “CTCTTTGGAGTTACCATGCTTGATGTGGTTAGGGCCAAG (double strand) [107832R target]” has an activity (% indel clones) [7] of 5.5.
Work on “GTCACCGAGCTTCCCTTCTTCGCATCCAAGGTAATAAGCC (double strand) [107835R target]” yielded an activity (% indel clones) [8] of 0.7.
